The record followed here is article PMC9732051, “Divergent self-association properties of paralogous proteins TRIM2 and TRIM3 regulate their E3 ligase activity” (Nature Communications, 2022).

Data set [1] concerns the molecule itself. In words: SEC-MALLS; Superdex 75 or 200 10/300 GL Increase; 20 mM HEPES pH 7.5, 150 mM NaCl, 0.5 mM TCEP, 3 mM NaN3; 25 °C; 100 μl samples at multiple concentrations (5, 3, 2 and 1 mg/ml in Fig. 1b).
Data set [2] addresses T1, 15N-labelled UBE2D3 (C85S) (UniProt P61077 1-147, mutation of the catalytic cysteine (C85) to serine).
T1 construct: UBE2D3 with the catalytic cysteine (C85) mutated to serine; Uniformly 15N-enriched; source: bacteria grown in M9 minimal medium with 15N-ammonium chloride
The data set is described as follows: NMR titration; 1H-15N HSQC of 200 µM 15N-UBE2D3 (C85S) titrated with unlabelled RING (0 to 2 molar equivalents); 298 K; 25 mM Na-phosphate pH 7.0, 150 mM NaCl; Kd from fits of chemical shift changes. The following applies: both partners purified.
T1 sequence (P61077 whole entry C85S): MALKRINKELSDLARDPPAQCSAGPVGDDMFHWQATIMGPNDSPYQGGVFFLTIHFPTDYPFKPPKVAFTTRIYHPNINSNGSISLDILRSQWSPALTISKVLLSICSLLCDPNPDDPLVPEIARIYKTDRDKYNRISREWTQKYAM

The target in data set [3] is 15N-labelled UBE2D3 (C85S) (UniProt P61077 1-147, mutation of the catalytic cysteine (C85) to serine). The data set is described as follows: NMR; residue K101.
Target sequence in this assay (P61077 whole entry C85S): as above

Numbering of substitutions follows the chain as printed. Names may count otherwise.

B1: human TRIM3 tripartite motif RBCC (2-313) (domain or fragment, UniProt O75382 2-313, looked up)
chain: AKREDSPGPEVQPMDKQFLVCSICLDRYQCPKVLPCLHTFCERCLQNYIPAQSLTLSCPVCRQTSILPEQGVSALQNNFFISSLMEAMQQAPDGAHDPEDPHPLSVVAGRPLSCPNHEGKTMEFYCEACETAMCGECRAGEHREHGTVLLRDVVEQHKAALQRQLEAVRGRLPQLSAAIALVGGISQQLQERKAEALAQISAAFEDLEQALQQRKQALVSDLETICGAKQKVLQSQLDTLRQGQEHIGSSCSFAEQALRLGSAPEVLLVRKHMRERLAALAAQAFPERPHENAQLELVLEVDGLRRSVLNLG
notes: human TRIM3, RBCC construct, residues 2-313; also called TRIM3 RBCC; source: E. coli BL21 (DE3), purified (Ni-NTA, His6 cleaved by HRV 3C, SEC); not shown: His6, N-terminal, cleaved
In the case of B1, the stoichiometry N (commonly the number of molecules, sites or subunits per partner or assembly) in data set [1] was 2.

B2: human TRIM3 RING (2-95) (domain or fragment)
chain: GPGAKREDSPGPEVQPMDKQFLVCSICLDRYQCPKVLPCLHTFCERCLQNYIPAQSLTLSCPVCRQTSILPEQGVSALQNNFFISSLMEAMQQAPDG
notes: tripeptide Gly-Pro-Gly left at the N-terminus by 3C protease cleavage; human TRIM3, RING construct, residues 2-95; also called T3R; source: E. coli BL21 (DE3), purified (Ni-NTA, His6 cleaved by HRV 3C, SEC); not shown: His6, N-terminal, cleaved
With B2, the Kd – broadly, the equilibrium constant for the complex coming apart – in data set [2] was approximately 300 µM.

B3: human TRIM2 tripartite motif RBCC (2-316) (domain or fragment, UniProt Q9C040 2-316, looked up)
chain: ASEGTNIPSPVVRQIDKQFLICSICLERYKNPKVLPCLHTFCERCLQNYIPAHSLTLSCPVCRQTSILPEKGVAALQNNFFITNLMDVLQRTPGSNAEESSILETVTAVAAGKPLSCPNHDGNVMEFYCQSCETAMCRECTEGEHAEHPTVPLKDVVEQHKASLQVQLDAVNKRLPEIDSALQFISEIIHQLTNQKASIVDDIHSTFDELQKTLNVRKSVLLMELEVNYGLKHKVLQSQLDTLLQGQESIKSCSNFTAQALNHGTETEVLLVKKQMSEKLNELADQDFPLHPRENDQLDFIVETEGLKKSIHNLG
notes: human TRIM2, RBCC construct, residues 2-316; also called TRIM2 RBCC; source: E. coli BL21 (DE3), purified (Ni-NTA, His6 cleaved by HRV 3C, SEC); not shown: His6, N-terminal, cleaved
Consider B3, for which, in data set [1], the “stoichiometry N” value was 4.

B4: human TRIM2 RING (2-95) (domain or fragment, UniProt Q9C040 2-95, looked up)
chain: ASEGTNIPSPVVRQIDKQFLICSICLERYKNPKVLPCLHTFCERCLQNYIPAHSLTLSCPVCRQTSILPEKGVAALQNNFFITNLMDVLQRTPG
notes: human TRIM2, RING construct, residues 2-95; likely on this pET49b construct too; also called T2R; RING1; source: E. coli BL21 (DE3), purified (Ni-NTA, His6 cleaved by HRV 3C, SEC); not shown: His6, N-terminal, cleaved
For B4, the results for the dissociation constant (Kd) in data set [3] and in data set [2] were 643 µM and approximately 590 µM, respectively. The “stoichiometry N” value in data set [1] came to 2.

B5: chimera of the TRIM2 N- and C-terminal α-helices (2-16/84-95) and the TRIM3 core RING (16-82) (other, human, UniProt Q9C040 2-16, looked up)
chain: B4 chain with I21V, E27D, K30Q, N31C, H53Q, K71Q, A74S
notes: human TRIM2, N-terminal α-helix, residues 2-16; human TRIM3, core RING domain, residues 16-82; human TRIM2, C-terminal α-helix, residues 84-95; also called T2αs-T3Rcore; T2Rαs-T3Rcore; source: E. coli BL21 (DE3), purified (Ni-NTA, His6 cleaved by HRV 3C, SEC); not shown: His6, N-terminal, cleaved
Regarding B5, in data set [1], the binding result is listed as “binds”.

B6: human TRIM2 RING-B-box2 (2-156) (domain or fragment, UniProt Q9C040 2-156, looked up)
chain: ASEGTNIPSPVVRQIDKQFLICSICLERYKNPKVLPCLHTFCERCLQNYIPAHSLTLSCPVCRQTSILPEKGVAALQNNFFITNLMDVLQRTPGSNAEESSILETVTAVAAGKPLSCPNHDGNVMEFYCQSCETAMCRECTEGEHAEHPTVPLKD
notes: human TRIM2, RB2 construct, residues 2-156; also called TRIM2 RB2; source: E. coli BL21 (DE3), purified (Ni-NTA, His6 cleaved by HRV 3C, SEC); not shown: His6, N-terminal, cleaved
Consider B6, for which the “stoichiometry N” value in data set [1] was found to be 2.
